# Data from patent US20250101135A1 (Hoffmann-La Roche, published 2025).
# Molecular target: T1, monomeric human CD19 antigen Fc(kih) fusion molecule (human, UniProt P0DOX5 223-449 = IgG part)
# T1 construct: also called monomeric CD19-Fc; human CD19-Fc(kih)
# Assay: SPR ProteOn XPR36, IgG from HEK supernatant captured via anti-human Fab, monomeric CD19-Fc analyte, 1:1 Langmuir
# Method: 7000 RU of polyclonal anti-human Fab antibody were immobilized on all 6 channels of a GLM chip by Amine coupling (NaAcetate pH4.5, 25 ul/min, 240 s) (vertical orientation). Each antibody-containing HEK supernatant was filtered, diluted with PBST (10 mM phosphate, 150 mM sodium chloride pH 7.4, 0.005% Tween 20) to a concentration of 10 ug/ml, and then injected at a for 360 s at 25 μl/minute to achieve immobilization levels between 500 and 800 response units (RU) in vertical orientation. Injection of monomeric CD19-Fc: For one-shot kinetics measurements, injection direction was changed to horizontal orientation, three-fold dilution series of purified monomeric CD19-Fc (varying concentration ranges between 150 and 6 nM) were injected simultaneously at 50 μl/min along separate channels 1-4, with association times of 180 s, and dissociation times of 300 s. […] Buffer (PBST) was injected along the sixth channel to provide an “in-line” blank for referencing. Regeneration was performed by two pulses of 10 mM glycine pH 1.5 and 50 mM NaOH for 30 s at 90 ul/min (vertical orientation). Association rate constants (kₒₙ) and dissociation rate constants (koff) were calculated using a simple one-to-one Langmuir binding model in ProteOn Manager v3.1 software by simultaneously fitting the association and dissociation sensorgrams. The equilibrium dissociation constant (KD) was calculated as the ratio koff/kₒₙ.
Binder,Kd [nM],koff [s⁻¹],kon [M⁻¹ s⁻¹]
"anti-CD19 clone 8B8-5D08 in P329GLALA human IgG1 format (antibody, V domains shown) VH: QVQLVQSGAEVKKPGASVKVSCKASGYTFTDYIMHWVRQAPGQGLEWMGYINPYNDGSKYTEKFQGRVTMTSDTSISTAYMELSRLRSDDTAVYYCARGTYYYGSELFDYWGQGTTVTVSS VL: DIVMTQTPLSLSVTPGQPASISCKSSQSLETSTGNTYLNWYLQKPGQSPQLLIYRVSKRFSGVPDRFSGSGSGTDFTLKISRVEAEDVGVYYCLQLTHEPYTFGQGTKLEIKR",0.951,8.44e-05,88800
"anti-CD19 clone 8B8-7H07 in P329GLALA human IgG1 format (antibody, V domains shown) VH: QVQLVQSGAEVKKPGASVKVSCKASGYTFTDYIMHWVRQAPGQGLEWMGYINPYNDGSKYTEKFQGRVTMTSDTSISTAYMELSRLRSDDTAVYYCARGTYYYGSELFDYWGQGTTVTVSS VL: DIVMTQTPLSLSVTPGQPASISCKSSQSLETSTGNTYLNWYLQKPGQSPQLLIYRVSKRFSGVPDRFSGSGSGTDFTLKISRVEAEDVGVYYCLQATHIPYTFGQGTKLEIKR",0.747,5.57e-05,74500
"anti-CD19 clone 8B8-2B03 in P329GLALA human IgG1 format (antibody, V domains shown, light chain holds an X) VH: QVQLVQSGAEVKKPGASVKVSCKASGYTFTDYITHWVRQAPGQGLEWMGYINPYNDGSKYTEKFQGRVTMTSDTSISTAYMELSRLRSDDTAVYYCARGTYYYGPDLFDYWGQGTTVTVSS VL: DIVMTQTPLSLSVTPGQPASISCKSSQSLETSTGNTYLNWYLQKPGQSPQLLIYRVSKRFSGVPDRFSGSGSGTDFTLKISRVEAEDVGVYYCLQLTHVPYTFGQGTKLEIKR",0.831,5e-05,60200
"anti-CD19 clone 8B8-5H09 in P329GLALA human IgG1 format (antibody, V domains shown) VH: QVQLVQSGAEVKKPGASVKVSCKASGYTFTDYIMHWVRQAPGQGLEWMGYINPYNDGSKYTEKFQGRVTMTSDTSISTAYMELSRLRSDDTAVYYCARGTYYYGSALFDYWGQGTTVTVSS VL: DIVMTQTPLSLSVTPGQPASISCKSSQSLESSTGNTYLNWYLQKPGQSPQLLIYRVSKRFSGVPDRFSGSGSGTDFTLKISRVEAEDVGVYYCLQLIDYPVTFGQGTKLEIKR",0.189,1.5e-05,79100

# Further binders by falling Kd, results first:
Kd [nM],koff [s⁻¹],kon [M⁻¹ s⁻¹],Binder
2.36,0.000134,56600,"anti-CD19 clone 8B8 (parental) in P329GLALA human IgG1 format (antibody, V domains shown, also called Parental 8B8) VH: EVQLQQSGPELVKPGASVKMACKASGYTFTDYIMHWVKQKTGQGLEWIGYINPYNDGSKYTEKFNGKATLTSDKSSITAYMELSSLTSEDSAVYYCARGTYYYGSALFDYWGQGTTLTVSS VL: DAVMTQTPLSLPVSLGDQASISCRSSQSLENSNGNTYLNWYLQKPGQSPQLLIYRVSKRFSGVLDRFSGSGSGTDFTLKISRVEAEDLGVYFCLQLTHVPYTFGGGTKLEIKR"
0.772,5.26e-05,68100,"anti-CD19 clone 8B8-5B08 in P329GLALA human IgG1 format (antibody, V domains shown) VH: QVQLVQSGAEVKKPGASVKVSCKASGYTFTDYIMHWVRQAPGQGLEWMGYINPYNDGSKYTEKFQGRVTMTSDTSISTAYMELSRLRSDDTAVYYCARGTYYYGPQLFDYWGQGTTVTVSS VL: DIVMTQTPLSLSVTPGQPASISCKSSQSLETSTGNTYLNWYLQKPGQSPQLLIYRVSKRFSGVPDRFSGSGSGTDFTLKISRVEAEDVGVYYCLQLDSYPNTFGQGTKLEIKR"
0.495,3.14e-05,63400,"anti-CD19 clone 8B8-2B11 in P329GLALA human IgG1 format (antibody, V domains shown) VH: QVQLVQSGAEVKKPGASVKVSCKASGYTFTDYIMHWVRQAPGQGLEWMGYINPYNDGSKYTEKFQGRVTMTSDTSISTAYMELSRLRSDDTAVYYCARGTYYYGPQLFDYWGQGTTVTVSS VL: DIVMTQTPLSLSVTPGQPASISCKSSQSLETSTGTTYLNWYLQKPGQSPQLLIYRVSKRFSGVPDRFSGSGSGTDFTLKISRVEAEDVGVYYCLQLLEDPYTFGQGTKLEIKR"
0.44,3.07e-05,69800,"anti-CD19 clone 8B8-5A07 in P329GLALA human IgG1 format (antibody, V domains shown) VH: QVQLVQSGAEVKKPGASVKVSCKASGYTFTDYIMHWVRQAPGQGLEWMGYINPYNDGSKYTEKFQGRVTMTSDTSISTAYMELSRLRSDDTAVYYCARGTYYYGSALFDYWGQGTTVTVSS VL: DIVMTQTPLSLSVTPGQPASISCKSSQSLETSTGNTYLNWYLQKPGQSPQLLIYRVSKRFSGVPDRFSGSGSGTDFTLKISRVEAEDVGVYYCLQPGHYPGTFGQGTKLEIKR"
